Usually Kd stands for the equilibrium constant for the complex coming apart.

Assay [1] deals with human GARP expressed on cells (GARP-transfected HEK-293T cells; endogenous on L428 cells and activated Treg) (human) (UniProt Q14392). The assay can be described thus: flow cytometry on CD3/CD28 bead-activated human PBMC gated on CD4-positive cells, FITC-labeled anti-IgG secondary antibody against PE anti-Foxp3.
For assay [2] the target is unchanged. The assay can be described thus: flow cytometry on anti-CD3/anti-CD28 activated human PBMC, Alexa Fluor 647-labeled antibody against PE anti-Foxp3; the panel Antibody not-added prints 0.18. In general terms: In flow cytometry, cells or beads pass a laser one at a time.
The target is the same in assay [3]. The assay can be described thus: flow cytometry on anti-CD3/anti-CD28 activated human PBMC, Alexa Fluor 647-labeled antibody against PE anti-Foxp3; the panel Antibody not-added prints 0.13.
The target in assay [4] is T1, recombinant human GARP (R&D Systems, catalog number 6055-LR) (human, UniProt Q14392 20-627).
T1 construct: Bought soluble protein; In the phage panning and Fab screening it was in part biotinylated; also called antigen
T1 sequence: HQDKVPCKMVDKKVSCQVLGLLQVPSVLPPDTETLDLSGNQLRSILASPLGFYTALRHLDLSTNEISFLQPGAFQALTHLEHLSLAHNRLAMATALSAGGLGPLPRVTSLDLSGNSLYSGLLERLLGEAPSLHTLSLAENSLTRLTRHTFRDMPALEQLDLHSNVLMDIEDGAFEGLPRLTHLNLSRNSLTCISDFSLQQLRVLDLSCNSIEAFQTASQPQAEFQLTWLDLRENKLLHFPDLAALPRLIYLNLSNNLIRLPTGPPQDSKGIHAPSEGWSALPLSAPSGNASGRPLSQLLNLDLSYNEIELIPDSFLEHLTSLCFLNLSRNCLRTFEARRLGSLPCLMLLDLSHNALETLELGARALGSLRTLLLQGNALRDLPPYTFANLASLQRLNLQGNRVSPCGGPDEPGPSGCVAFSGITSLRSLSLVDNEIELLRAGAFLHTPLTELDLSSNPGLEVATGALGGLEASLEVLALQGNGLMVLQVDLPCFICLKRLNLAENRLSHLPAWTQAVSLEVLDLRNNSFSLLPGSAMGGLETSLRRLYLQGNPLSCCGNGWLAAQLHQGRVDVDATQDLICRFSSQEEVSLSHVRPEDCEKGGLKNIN
The assay can be described thus: SPR (Biacore T200), antibody captured on Protein A, GARP antigen as analyte, 1:1 fit. The method, then:
The dissociation constant between each of the humanized anti-human GARP antibodies h151D-H1L1, h151D-H4L4 and h198D-H3L4 produced in Example 7)-10 and GARP was evaluated by using Biacore T200 (GE Healthcare Bioscience), according to a capture method, which comprises capturing the antibody as a ligand by the immobilized Protein A and then analyzing the dissociation constant using an antigen as an analyte. HBS-EP+ (manufactured by GE Healthcare Bioscience) was used as a running buffer, and a Protein A Sensor Chip (manufactured by GE Healthcare Bioscience) was used as a sensor chip.
The human chimeric antibody (1 μg/mL) was added onto the chip at a rate of 10 μL/min for 20 seconds, and a dilution series solution (8 to 128 nM) of the antigen was added at a flow rate of 30 μl/min for 120 seconds. Subsequently, the dissociation was monitored for 480 seconds. As a regeneration solution, Glycine 1.5 (manufactured by GE Healthcare Bioscience) was added at a flow rate of 20 μl/min for 30 seconds.
1:1 Fitting model was used in data analysis, and the association rate constant ka, the dissociation rate constant kd, and the dissociation constant (KD; KD=kd/ka) were calculated.

Assay [5] has as its target T2, human GARP expressed on cells (GARP-transfected HEK-293T cells; endogenous on L428 cells and activated Treg) (human, UniProt Q14392 20-662).
T2 construct: The transfected cells carry a human GARP cDNA clone (Origene) in pcDNA3.1(+); also called hGARP; endogenously expressed GARP
T2 sequence: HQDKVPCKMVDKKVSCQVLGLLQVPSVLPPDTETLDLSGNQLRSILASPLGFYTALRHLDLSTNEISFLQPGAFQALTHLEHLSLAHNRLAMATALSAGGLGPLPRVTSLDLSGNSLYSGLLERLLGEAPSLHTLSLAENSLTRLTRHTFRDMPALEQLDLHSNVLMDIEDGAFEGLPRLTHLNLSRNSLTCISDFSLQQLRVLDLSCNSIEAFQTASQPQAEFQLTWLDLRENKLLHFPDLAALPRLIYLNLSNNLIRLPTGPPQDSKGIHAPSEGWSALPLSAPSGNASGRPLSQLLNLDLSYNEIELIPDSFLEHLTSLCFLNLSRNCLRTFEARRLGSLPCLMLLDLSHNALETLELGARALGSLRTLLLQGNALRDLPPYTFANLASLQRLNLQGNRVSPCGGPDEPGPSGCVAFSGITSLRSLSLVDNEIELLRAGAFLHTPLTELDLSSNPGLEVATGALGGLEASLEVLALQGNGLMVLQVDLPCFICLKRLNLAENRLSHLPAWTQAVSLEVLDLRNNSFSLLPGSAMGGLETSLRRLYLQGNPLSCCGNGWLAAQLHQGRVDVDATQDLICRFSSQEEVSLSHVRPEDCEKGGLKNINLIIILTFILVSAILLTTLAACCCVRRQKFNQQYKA
The assay can be described thus: flow cytometry on CD3/CD28 bead-activated human PBMC gated on CD4-positive cells, FITC-labeled anti-IgG secondary antibody against PE anti-Foxp3.

Assay [6] has as its target T1, recombinant human GARP (R&D Systems, …). In words: ELISA on plate-coated human GARP (1 ug/mL), 50 nM antibody, HRP anti-human Fc, chemiluminescence. Here is the method:
The plate was washed with the ELISA buffer three times. […] On the other hand, 100 μL of HRP-labeled anti-mouse Fc antibody (R&D Systems), which had been 5000-fold diluted with PBS, was added to the wells treated with mouse anti-GARP antibody and mouse IgG. The plate was incubated at room temperature for 1 hour with mixing.
(ELISA stands for enzyme-linked immunosorbent assay.)

For assay [7] the target is unchanged. In words: SPR (Biacore T200), antibody captured on Protein A, recombinant human GARP as analyte, 1:1 fit. The method, then:
The dissociation constant between the c151D or c198D produced in Example 6)-4 and human GARP was evaluated by using Biacore T200 (GE Healthcare Bioscience), according to a capture method, which comprises capturing the antibody as a ligand with the immobilized Protein A and then analyzing the dissociation constant using an antigen (recombinant human GARP: R&D Systems) as an analyte. HBS-EP+ (manufactured by GE Healthcare Bioscience) was used as a running buffer, and a Protein A Sensor Chip (manufactured by GE Healthcare Bioscience) was used as a sensor chip.
The human chimeric antibody (1 μg/mL) was added onto the chip at a rate of 10 μL/min for 20 seconds, and a dilution series solution (8 to 128 nM) of the antigen was then added at a flow rate of 30 μl/min for 120 seconds. Subsequently, the dissociation was monitored for 480 seconds. As a regeneration solution, Glycine 1.5 (manufactured by GE Healthcare Bioscience) was added at a flow rate of 20 μl/min for 30 seconds.
1:1 Fitting models were used in data analysis, and the association rate constant ka, the dissociation rate constant kd, and the dissociation constant (KD; KD=kd/ka) were calculated.
A general note: In SPR one partner is held on a chip, and binding of the other changes the refractive index at the surface.

In assay [1], human IgG (antibody) returned a percent of CD4-positive cells in Q2 (GARP-positive, Foxp3-positive) of 0.039% and a percent of CD4-positive cells in Q3 (GARP-positive, Foxp3-negative) of 0.242%.
With “Alexa Fluor 647-labeled anti-GARP antibody (G14D9, eBioscience)”, the percent of cells in the lower right quadrant (GARP-positive, Foxp3-negative) in assay [2] was 0.81. In addition, the percent of cells in the upper right quadrant (GARP-positive, Foxp3-positive) in assay [3] was found to be 4.19.

B1: humanized anti-human GARP antibody h198D-H3L4 (antibody, human IgG1, kappa, V domains shown)
VH: EVQLVESGGGLVKPSQTLSLTCTVSGFSLTSFHVSWVRQPPGKGLEWIATISSGGGTYYNPSLKSRVTISRDTSKNQVSLKLSSVTAADTAVYYCARISGWGHYYVMDVWGQGTLVTVSS
VL: DIQMTQSPSSLSASVGDRVTITCQASEDIYSGLAWYQQKPGKSPKLLIYGAGSLQDGVPSRFSGSGSGTHYTLTISSLQPEDFATYFCQQGLKFPLTFGQGTKVEIKR
notes: Produced in Potelligent CHOK1SV cells; also called MACA-1983a
For B1, the equilibrium dissociation constant (Kd) in assay [4] came to 0.088 nM. For the same molecule, in assay [5], the “percent of CD4-positive cells in Q2 (GARP-positive, Foxp3-positive)” value (from here on “percent of CD4-positive cells in Q2”) is 3.47% and the “percent of CD4-positive cells in Q3 (GARP-positive, Foxp3-negative)” value (“percent of CD4-positive cells in Q3” below) was 3.25%.

B2: 110F antibody (antibody, human IgG1, lambda, V domains shown)
VH: EVQLLESGGGLVQPGGSLRLSCAASGFTFSSYGMHWVRQAPGKGLEWVAGISWNSAITVYADSVKGRFTISRDNSKNTLYLQMNSLRAEDTAVYYCAKDAGGRYSGSYYFDYWGQGTLVTVSS
VL: QSVLTQPPSASGTPGQRVTISCTGSSSNIGAGYDVHWYQQLPGTAPKLLIYGNSNRPSGVPDRFSGSKSGTSASLAISGLRSEDEADYYCQSYDRSLNWVFGGGTKLTVLG
As for B2, the binding result in assay [6] was “binds”.

B3: human chimeric 151D antibody c151D (antibody, human IgG1, V domains shown)
VH: EVQLVESGGGLVQPGRSKKLSCSASGFTFSNYYMAWVRQAPTQGLEWVASIGTVGGNTYYRDSVKGRFTISRDDAKSTLYLQMDSLRSEDTATYYCAREDYGGFPHWGQGVMVTVSS
VL: NIVMTQSPTSMFISVGDRVTMNCKASQNVGTNVDWYQQKTGQSPKLLIYGASNRYTGVPDRFTGSGSGTDFTLTISNMQAEDLAVYDCLQYKYNPYTFGTGTKLELNR
For B3, the Kd in assay [7] amounted to 0.47 nM.

B4: humanized anti-human GARP antibody h151D-H1L1 (antibody, human IgG1, kappa, V domains shown)
VH: EVQLVESGGGLVQPGGSLRLSCAASGFTFSNYYMAWVRQAPGKGLEWVSSIGTVGGNTYYADSVKGRFTISRDDSKNTLYLQMNSLRAEDTAVYYCAREDYGGFPHWGQGTLVTVSS
VL: NIVMTQSPDSLAVSLGERATINCKASQNVGTNVDWYQQKPGQSPKLLIYGASNRYTGVPDRFSGSGSGTDFTLTISSLQAEDVAVYDCLQYKYNPYTFGQGTKVEIKR
notes: Produced in Potelligent CHOK1SV cells; also called MACA-1511a
As to B4, the Kd in assay [4] was found to be 1.8 nM. In assay [5], the “percent of CD4-positive cells in Q2” value was 3.54% and the “percent of CD4-positive cells in Q3” value came to 2.41%.

B5: humanized anti-human GARP antibody h151D-H4L4 (antibody, human IgG1, kappa, V domains shown)
VH: EVQLVESGGGLVQPGGSLRLSCAASGFTFSNYYMAWVRQAPGKGLEWVASIGTVGGNTYYRDSVKGRFTISRDDSKSTLYLQMNSLRAEDTAVYYCAREDYGGFPHWGQGTLVTVSS
VL: NIVMTQSPSSLSASVGDRVTINCKASQNVGTNVDWYQQKPGKSPKLLIYGASNRYTGVPDRFSGSGSGTDFTLTISSLQPEDFATYDCLQYKYNPYTFGQGTKVEIKR
notes: Produced in Potelligent CHOK1SV cells; also called MACA-1514a
B5: the Kd in assay [4] was found to be 1.2 nM. In addition, in assay [5], the “percent of CD4-positive cells in Q2” value amounted to 3.38% and the “percent of CD4-positive cells in Q3” value came to 2.59%.

B6: human chimeric 198D antibody c198D (antibody, human IgG1, V domains shown)
VH: QVQLRESGPGLVQPSQTLSLTCTVSGFSLTSFHVSWVRQPPEKGLEWIATISSGGGTYYNSALKSRLSISRDTSKSQVFLKMSTLQTEDTAMYFCARISGWGHYYVMDVWGQGASVTVSS
VL: DIQMTQSPASLSGSLGETVTIQCQASEDIYSGLAWYQQKPGKSPQLLIYGAGSLQDGVPSRFSGGGSGTHYSLKISSMQTEDEGVYFCQQGLKFPLTFGSGTKLEIKR
As for B6, in assay [7], the Kd amounted to 0.17 nM.

For the origin of these results see patent US20240360245A1 (Daiichi Sankyo, published 2024).
